From publication PMC2714705 (Structure (London, England : 1993), 2009) come the findings set out here.

What all share (assay): cryo-EM structure
The data set “cryo-EM structure” deals with the molecule itself.
In data set [1] the target is T1, P22 assembly-naïve portal, full length His-tagged gp1 (bacteriophage P22), P26744.
T1 chain: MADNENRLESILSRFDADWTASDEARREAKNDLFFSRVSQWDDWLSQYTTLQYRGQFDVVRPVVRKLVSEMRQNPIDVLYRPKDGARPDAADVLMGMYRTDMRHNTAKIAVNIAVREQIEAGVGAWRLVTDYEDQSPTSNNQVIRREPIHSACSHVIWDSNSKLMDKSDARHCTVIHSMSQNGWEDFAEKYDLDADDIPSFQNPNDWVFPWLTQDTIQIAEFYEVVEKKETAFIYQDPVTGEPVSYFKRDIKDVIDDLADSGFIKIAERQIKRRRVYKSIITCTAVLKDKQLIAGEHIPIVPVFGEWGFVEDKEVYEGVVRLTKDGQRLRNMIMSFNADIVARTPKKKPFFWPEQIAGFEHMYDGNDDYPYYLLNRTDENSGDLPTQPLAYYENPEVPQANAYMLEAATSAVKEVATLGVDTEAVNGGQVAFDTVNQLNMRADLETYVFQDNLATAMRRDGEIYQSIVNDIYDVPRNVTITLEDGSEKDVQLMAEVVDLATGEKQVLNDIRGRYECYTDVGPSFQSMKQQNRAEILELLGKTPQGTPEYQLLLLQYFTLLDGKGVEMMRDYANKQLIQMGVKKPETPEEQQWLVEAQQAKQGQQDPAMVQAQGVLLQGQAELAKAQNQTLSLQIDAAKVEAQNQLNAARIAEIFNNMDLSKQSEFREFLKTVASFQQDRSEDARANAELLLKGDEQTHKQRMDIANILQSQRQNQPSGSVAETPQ
Particulars: remark: other sources report otherwise.

The target of a further data set is P22 gp9 tailspike (bacteriophage P22, UniProt P12528 1-667).
For data set [2], the target named is T2, P22 portal protein gp1 in the tail machine purified from virions (bacteriophage P22, UniProt P26744 1-725).
T2 sequence (looked up): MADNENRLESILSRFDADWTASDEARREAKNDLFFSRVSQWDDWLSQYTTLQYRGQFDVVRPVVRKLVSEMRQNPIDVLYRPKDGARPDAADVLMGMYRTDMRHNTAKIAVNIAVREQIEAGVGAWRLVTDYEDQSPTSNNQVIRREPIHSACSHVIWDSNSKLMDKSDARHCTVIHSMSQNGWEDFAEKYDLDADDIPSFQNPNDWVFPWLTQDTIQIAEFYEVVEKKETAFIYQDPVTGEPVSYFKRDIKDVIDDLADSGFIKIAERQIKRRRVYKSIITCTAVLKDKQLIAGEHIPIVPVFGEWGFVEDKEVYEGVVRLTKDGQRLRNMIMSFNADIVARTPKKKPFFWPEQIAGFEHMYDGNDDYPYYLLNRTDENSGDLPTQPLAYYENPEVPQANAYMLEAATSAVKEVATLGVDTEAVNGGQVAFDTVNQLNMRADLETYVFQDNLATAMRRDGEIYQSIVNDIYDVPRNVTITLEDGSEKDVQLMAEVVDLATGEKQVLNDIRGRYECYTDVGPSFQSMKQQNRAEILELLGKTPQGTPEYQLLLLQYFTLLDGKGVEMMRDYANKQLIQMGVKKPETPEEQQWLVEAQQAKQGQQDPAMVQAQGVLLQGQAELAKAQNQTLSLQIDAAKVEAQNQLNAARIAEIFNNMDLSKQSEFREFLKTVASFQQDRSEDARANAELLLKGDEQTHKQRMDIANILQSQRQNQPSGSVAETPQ

Values joined by “and” are separate entries in the source; they are usually repeats but may differ in a detail not shown here. Equal entries are not always repeated.

B1: P22 gp26 tail needle (natural protein, bacteriophage P22)
chain: MADPSLNNPVVIQATRLDASILPRNVFSKSYLLYVIAQGTDVGAIAGKANEAGQGAYDAQVKNDEQDVELADHEARIKQLRIDVDDHESRITANTKAITALNVRVTTAEGEIASLQTNVSALDGRVTTAENNISALQADYVSKTATTSQSLASPLNVTTSYSVGGKKVLGARQTGWTAATGTANKGVFDADLTFAVSDTYTQSEIQAIANALITERRRTKALEDALRAHGLID
On to B1, for which the binding result in “cryo-EM structure” is given as “binds”.

B2: P22 assembly-naïve portal, full length His-tagged gp1, P26744 1-725 (natural protein)
chain: MADNENRLESILSRFDADWTASDEARREAKNDLFFSRVSQWDDWLSQYTTLQYRGQFDVVRPVVRKLVSEMRQNPIDVLYRPKDGARPDAADVLMGMYRTDMRHNTAKIAVNIAVREQIEAGVGAWRLVTDYEDQSPTSNNQVIRREPIHSACSHVIWDSNSKLMDKSDARHCTVIHSMSQNGWEDFAEKYDLDADDIPSFQNPNDWVFPWLTQDTIQIAEFYEVVEKKETAFIYQDPVTGEPVSYFKRDIKDVIDDLADSGFIKIAERQIKRRRVYKSIITCTAVLKDKQLIAGEHIPIVPVFGEWGFVEDKEVYEGVVRLTKDGQRLRNMIMSFNADIVARTPKKKPFFWPEQIAGFEHMYDGNDDYPYYLLNRTDENSGDLPTQPLAYYENPEVPQANAYMLEAATSAVKEVATLGVDTEAVNGGQVAFDTVNQLNMRADLETYVFQDNLATAMRRDGEIYQSIVNDIYDVPRNVTITLEDGSEKDVQLMAEVVDLATGEKQVLNDIRGRYECYTDVGPSFQSMKQQNRAEILELLGKTPQGTPEYQLLLLQYFTLLDGKGVEMMRDYANKQLIQMGVKKPETPEEQQWLVEAQQAKQGQQDPAMVQAQGVLLQGQAELAKAQNQTLSLQIDAAKVEAQNQLNAARIAEIFNNMDLSKQSEFREFLKTVASFQQDRSEDARANAELLLKGDEQTHKQRMDIANILQSQRQNQPSGSVAETPQ
As to B2, in data set [1], the stoichiometry N is 11 and 12.

B3: P22 gp4 (natural protein, bacteriophage P22, UniProt P26746 1-166, looked up)
chain: MQIKTKGDLVRAALRKLGVASDATLTDVEPQSMQDAVDDLEAMMAEWYQDGKGIITGYVFSDDENPPAEGDDHGLRSSAVSAVFHNLACRIAPDYALEATAKIIATAKYGKELLYKQTAISRAKRAPYPSRMPTGSGNSFANLNEWHYFPGEQNADSTTPHDEGNG
As to B3, the binding result (in the data set with P22 gp9 tailspike; in data set [2]; in “cryo-EM structure”) was “binds” throughout.
